Values of other authors in article PMC4114557.
pKd: −log10 of the molar value. Where two headings read alike, the source gives them in different places.

What was measured:
[1] = biological target: Colicin E9 R-domain (Escherichia coli) (UniProt P09883)
[2] = biological target: Colicin E3 R-domain (Escherichia coli) (UniProt P00646)
BtuB (Escherichia coli) [3] = biological target: BtuB (Escherichia coli) (UniProt P06129)
BtuB (Escherichia coli) [4] = biological target: BtuB (Escherichia coli) (UniProt P06129); remark: listed apart in the source
OmpF (Escherichia coli) [5] = biological target: OmpF (Escherichia coli) (UniProt P02931)
UniProt P02931, sequence (P02931 23-362): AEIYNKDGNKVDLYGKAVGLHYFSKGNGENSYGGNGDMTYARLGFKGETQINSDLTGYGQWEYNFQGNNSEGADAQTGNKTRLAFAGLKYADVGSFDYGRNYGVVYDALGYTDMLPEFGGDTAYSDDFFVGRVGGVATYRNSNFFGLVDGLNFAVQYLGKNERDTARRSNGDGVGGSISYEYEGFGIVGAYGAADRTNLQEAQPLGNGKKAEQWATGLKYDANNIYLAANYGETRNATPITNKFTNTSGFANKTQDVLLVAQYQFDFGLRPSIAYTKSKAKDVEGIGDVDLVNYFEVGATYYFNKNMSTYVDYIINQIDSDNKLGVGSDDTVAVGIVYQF

OmpF (Escherichia coli) [6] = biological target: OmpF (Escherichia coli) (UniProt P02931); remark: listed apart in the source
BtuB (Escherichia coli) [7] = biological target: BtuB (Escherichia coli) (UniProt P06129); remark: listed apart in the source
OmpF (Escherichia coli) [8] = biological target: OmpF (Escherichia coli) (UniProt P02931); remark: listed apart in the source

With BtuB (from UniProt P06129) as the substance, how does the pKd [1] read?
The pKd was 9.00.

What about the pKd [2] of the same substance?
Its pKd is 9.00.

With “Colicin E2 R-domain (from UniProt P04419)” as the substance, how does the pKd (BtuB (Escherichia coli) [3]) read?
The pKd was 9.00.

With “Colicin E3 R-domain (from UniProt P00646)” as the substance, how does the pKd (BtuB (Escherichia coli) [4]) read?
Its pKd is 9.00.

With Colicin E9 OBS1 (from UniProt P09883) as the substance, how does the pKd (OmpF (Escherichia coli) [5]) read?
Its pKd is 5.70.

With Colicin E9 OBS2 (from UniProt P09883) as the substance, how does the pKd (OmpF (Escherichia coli) [6]) read?
Its pKd is 4.62.

With “Colicin E9 R-domain (from UniProt P09883)” as the substance, how does the pKd (BtuB (Escherichia coli) [7]) read?
Its pKd is 9.00.

With “Colicin N T-domain (from UniProt P08083)” as the substance, how does the pKd (OmpF (Escherichia coli) [8]) read?
Its pKd is 5.52.
